This data set deals with the molecule itself. Kind of data set: gel filtration chromatography (Superdex 200 5/150 GL) of the purified protein; self-association. An excerpt:
Gel filtration analysis was used to verify the expected molecular weight of the purified OgLuc proteins based on the theoretical values and consequently to determine their oligomeric state. A comparison between the relative hydrodynamic volume of the OgLuc variants C1+A4E and 9B8 was made by gel filtration chromatography. For this analysis, the nucleotide sequence for the OgLuc variants, C1+A4E and 9B8, were cloned into a HQ-Tagged Flexi® Vector (Promega Corp.) to create a HQHQHQ (SEQ ID NO: 580) N-terminally tagged protein that was overexpressed in E. coli KRX cells. The overexpressed proteins were purified using the HisLink™ Protein Purification System (Promega Corp.) according to manufacturer's instructions. Samples of each individual standard and sample protein were analyzed by gel filtration chromatography, which was performed at 24° C. on an Agilent 1200 HPLC, using a Superdex 200 5/150 GL column (GE Healthcare) with a flow rate of 0.25 mL/min (FIGS. 43A-B). The mobile phase (i.e., running buffer) consisted of 50 mM Tris and 150 mM NaCl, pH 7.5. Protein elution was monitored at 214 and 280 nm. A standard calibration curve was generated using: 1) Ovalbumin, 43 kDa (GE Healthcare), 2) Carbonic Anhydrase, 29 kDa (Sigma) and 3) Myoglobin, 17 kDa (Horse Heart, Sigma). The molecular weights of the purified proteins were calculated directly from the calibration curve.

B1: OgLuc variant 9B8, HQHQHQ N-terminally tagged (enzyme)
chain: HQHQHQFTLEDFVGDWRQTAGYNLDQVLEQGGLSSLFQKLGVSVTPIQKIVLSGENGLKIDIHVIIPYEGLSGYQMGQIEKIFKVVYPVDDHHFKVILHYGTLVIDGVTPNMIDYFGRPYEGIAVFDGKKITVTGTLWNGNKIIDERLINPDGSLLFRVTINGVTGWRLCERILA
notes: Overexpressed in E. coli KRX and purified with the HisLink Protein Purification System for gel filtration
For B1, the binding result is given as “no binding”.

(Values after patent publication US20150064731A1 (PROMEGA, published 2015).)
